Measured values: the supplement of paper PMC9112550, “Optimization of the antimicrobial peptide Bac7 by deep mutational scanning” (BMC Biology, 2022)

What follows are sequences tested on Escherichia coli TOP10 (assay: shrunken log2 fold change of peptide-encoding DNA abundance (4.5 h post-induction vs induction); higher = less antimicrobial activity (less host growth inhibition)). Conditions: time post-induction: 4.5 h; library: site-saturation at positions 5, 18, 19, 20.
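Note: peptides expressed intracellularly from a pBAD plasmid library in pooled LB shake-flask culture, induced with 0.3% L-arabinose, DNA abundance read by NGS, three biological replicates, DESeq2 with apeglm shrinkage.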

Question: For RRIRIRPPRLPRPRPRPLPNPRP, which “shrunken log2 fold change” value is on record?
Answer: Its value is -0.217.

Question: How did the “shrunken log2 fold change” value turn out when RRIRIRPPRLPRPRPRPLQMPRP was run?
Answer: Its value is -0.264.

Question: Which “shrunken log2 fold change” value does the source give for RRIRIRPPRLPRPRPRPLRFPRP here?
Answer: The value was -0.21.

Question: For RRIRIRPPRLPRPRPRPLSCPRP, which “shrunken log2 fold change” value is on record?
Answer: The value was -0.253.

Question: For RRIRIRPPRLPRPRPRPLTTPRP, which “shrunken log2 fold change” value is on record?
Answer: Its value is -0.148.

Question: For RRIRIRPPRLPRPRPRPLVPPRP, which “shrunken log2 fold change” value is on record?
Answer: The value was -0.33.

Question: How did the “shrunken log2 fold change” value turn out when RRIRIRPPRLPRPRPRPMAEPRP was run?
Answer: The value was -0.0152.

Question: For RRIRIRPPRLPRPRPRPMAIPRP, which “shrunken log2 fold change” value is on record?
Answer: The value was -0.274.

Question: How did the “shrunken log2 fold change” value turn out when RRIRIRPPRLPRPRPRPMDNPRP was run?
Answer: Its value is -0.096.

Question: For RRIRIRPPRLPRPRPRPMEWPRP, which “shrunken log2 fold change” value is on record?
Answer: Its value is -0.00133.

Question: How did the “shrunken log2 fold change” value turn out when RRIRIRPPRLPRPRPRPMFNPRP was run?
Answer: The value was -0.923.

Question: For RRIRIRPPRLPRPRPRPMHDPRP, which “shrunken log2 fold change” value is on record?
Answer: The value was -0.152.

Question: RRIRIRPPRLPRPRPRPMHMPRP was tested. Which “shrunken log2 fold change” value did it give?
Answer: Its value is -0.0247.

Question: With RRIRIRPPRLPRPRPRPMIKPRP as the sequence, how does the “shrunken log2 fold change” value read?
Answer: Its value is -0.761.

Question: RRIRIRPPRLPRPRPRPMLIPRP was tested. Which “shrunken log2 fold change” value did it give?
Answer: The value was -0.21.

Question: For RRIRIRPPRLPRPRPRPMLQPRP, which “shrunken log2 fold change” value is on record?
Answer: Its value is -0.452.

Question: With RRIRIRPPRLPRPRPRPMLWPRP as the sequence, how does the “shrunken log2 fold change” value read?
Answer: The value was 0.0197.

Question: For RRIRIRPPRLPRPRPRPMLYPRP, which “shrunken log2 fold change” value is on record?
Answer: The value was -0.33.

Question: Which “shrunken log2 fold change” value does the source give for RRIRIRPPRLPRPRPRPMMAPRP here?
Answer: The value was 0.0709.

Question: With RRIRIRPPRLPRPRPRPMMSPRP as the sequence, how does the “shrunken log2 fold change” value read?
Answer: Its value is -0.00118.

Question: For RRIRIRPPRLPRPRPRPMNEPRP, which “shrunken log2 fold change” value is on record?
Answer: Its value is 0.0707.

Question: How did the “shrunken log2 fold change” value turn out when RRIRIRPPRLPRPRPRPMPCPRP was run?
Answer: The value was 0.00854.

Question: For RRIRIRPPRLPRPRPRPMQEPRP, which “shrunken log2 fold change” value is on record?
Answer: Its value is -0.2.

Question: RRIRIRPPRLPRPRPRPMQIPRP was tested. Which “shrunken log2 fold change” value did it give?
Answer: Its value is -0.099.

Question: RRIRIRPPRLPRPRPRPMQMPRP was tested. Which “shrunken log2 fold change” value did it give?
Answer: The value was -0.52.

Question: How did the “shrunken log2 fold change” value turn out when RRIRIRPPRLPRPRPRPMRCPRP was run?
Answer: The value was -0.0263.

Question: RRIRIRPPRLPRPRPRPMTMPRP was tested. Which “shrunken log2 fold change” value did it give?
Answer: The value was -0.01.

Question: With RRIRIRPPRLPRPRPRPMTSPRP as the sequence, how does the “shrunken log2 fold change” value read?
Answer: Its value is -0.0513.

Question: Which “shrunken log2 fold change” value does the source give for RRIRIRPPRLPRPRPRPMWNPRP here?
Answer: The value was -0.472.

Question: Which “shrunken log2 fold change” value does the source give for RRIRIRPPRLPRPRPRPNAMPRP here?
Answer: The value was -0.0812.

Question: With RRIRIRPPRLPRPRPRPNAPPRP as the sequence, how does the “shrunken log2 fold change” value read?
Answer: The value was 0.00635.

Question: Which “shrunken log2 fold change” value does the source give for RRIRIRPPRLPRPRPRPNCSPRP here?
Answer: The value was -0.175.

Question: With RRIRIRPPRLPRPRPRPNDTPRP as the sequence, how does the “shrunken log2 fold change” value read?
Answer: The value was -1.01.

Question: Which “shrunken log2 fold change” value does the source give for RRIRIRPPRLPRPRPRPNGKPRP here?
Answer: The value was -0.229.

Question: How did the “shrunken log2 fold change” value turn out when RRIRIRPPRLPRPRPRPNGWPRP was run?
Answer: Its value is 0.101.

Question: Which “shrunken log2 fold change” value does the source give for RRIRIRPPRLPRPRPRPNHDPRP here?
Answer: Its value is -0.832.

Question: RRIRIRPPRLPRPRPRPNIFPRP was tested. Which “shrunken log2 fold change” value did it give?
Answer: The value was -0.319.

Question: RRIRIRPPRLPRPRPRPNIQPRP was tested. Which “shrunken log2 fold change” value did it give?
Answer: Its value is -1.03.

Question: Which “shrunken log2 fold change” value does the source give for RRIRIRPPRLPRPRPRPNLGPRP here?
Answer: The value was -0.109.

Question: Which “shrunken log2 fold change” value does the source give for RRIRIRPPRLPRPRPRPNMCPRP here?
Answer: Its value is 0.0488.

Question: Which “shrunken log2 fold change” value does the source give for RRIRIRPPRLPRPRPRPNMRPRP here?
Answer: The value was -0.374.

Question: How did the “shrunken log2 fold change” value turn out when RRIRIRPPRLPRPRPRPNMSPRP was run?
Answer: Its value is -0.783.

Question: With RRIRIRPPRLPRPRPRPNNQPRP as the sequence, how does the “shrunken log2 fold change” value read?
Answer: Its value is -0.836.

Question: Which “shrunken log2 fold change” value does the source give for RRIRIRPPRLPRPRPRPNPAPRP here?
Answer: Its value is 0.0171.

Question: How did the “shrunken log2 fold change” value turn out when RRIRIRPPRLPRPRPRPNQKPRP was run?
Answer: Its value is 0.0249.

Question: RRIRIRPPRLPRPRPRPNQYPRP was tested. Which “shrunken log2 fold change” value did it give?
Answer: The value was -0.681.

Question: RRIRIRPPRLPRPRPRPNRDPRP was tested. Which “shrunken log2 fold change” value did it give?
Answer: The value was -0.0377.

Question: How did the “shrunken log2 fold change” value turn out when RRIRIRPPRLPRPRPRPNRFPRP was run?
Answer: Its value is -0.174.

Question: RRIRIRPPRLPRPRPRPNSYPRP was tested. Which “shrunken log2 fold change” value did it give?
Answer: Its value is -0.084.

Question: RRIRIRPPRLPRPRPRPNTMPRP was tested. Which “shrunken log2 fold change” value did it give?
Answer: The value was -0.264.

Question: With RRIRIRPPRLPRPRPRPNTPPRP as the sequence, how does the “shrunken log2 fold change” value read?
Answer: Its value is -0.487.

Question: With RRIRIRPPRLPRPRPRPNVKPRP as the sequence, how does the “shrunken log2 fold change” value read?
Answer: Its value is -0.163.

Question: Which “shrunken log2 fold change” value does the source give for RRIRIRPPRLPRPRPRPNVWPRP here?
Answer: The value was -0.309.

Question: For RRIRIRPPRLPRPRPRPNWFPRP, which “shrunken log2 fold change” value is on record?
Answer: Its value is 0.0822.

Question: Which “shrunken log2 fold change” value does the source give for RRIRIRPPRLPRPRPRPNWRPRP here?
Answer: The value was 0.0227.

Question: How did the “shrunken log2 fold change” value turn out when RRIRIRPPRLPRPRPRPNWVPRP was run?
Answer: Its value is -0.231.

Question: How did the “shrunken log2 fold change” value turn out when RRIRIRPPRLPRPRPRPPAFPRP was run?
Answer: The value was -0.155.

Question: For RRIRIRPPRLPRPRPRPPAQPRP, which “shrunken log2 fold change” value is on record?
Answer: The value was 0.0916.

Question: Which “shrunken log2 fold change” value does the source give for RRIRIRPPRLPRPRPRPPCYPRP here?
Answer: The value was -0.154.

Question: With RRIRIRPPRLPRPRPRPPDGPRP as the sequence, how does the “shrunken log2 fold change” value read?
Answer: The value was 1.84.

Question: With RRIRIRPPRLPRPRPRPPDVPRP as the sequence, how does the “shrunken log2 fold change” value read?
Answer: The value was -0.109.

Question: RRIRIRPPRLPRPRPRPPFAPRP was tested. Which “shrunken log2 fold change” value did it give?
Answer: Its value is 0.143.

Question: How did the “shrunken log2 fold change” value turn out when RRIRIRPPRLPRPRPRPPFPPRP was run?
Answer: The value was 0.141.

Question: With RRIRIRPPRLPRPRPRPPGRPRP as the sequence, how does the “shrunken log2 fold change” value read?
Answer: Its value is 0.336.

Question: For RRIRIRPPRLPRPRPRPPHCPRP, which “shrunken log2 fold change” value is on record?
Answer: The value was -0.391.

Question: For RRIRIRPPRLPRPRPRPPKDPRP, which “shrunken log2 fold change” value is on record?
Answer: Its value is -0.674.

Question: Which “shrunken log2 fold change” value does the source give for RRIRIRPPRLPRPRPRPPLGPRP here?
Answer: The value was 0.164.

Question: How did the “shrunken log2 fold change” value turn out when RRIRIRPPRLPRPRPRPPLLPRP was run?
Answer: The value was 0.444.

Question: Which “shrunken log2 fold change” value does the source give for RRIRIRPPRLPRPRPRPPLNPRP here?
Answer: Its value is -0.227.

Question: Which “shrunken log2 fold change” value does the source give for RRIRIRPPRLPRPRPRPPLYPRP here?
Answer: Its value is -0.331.

Question: Which “shrunken log2 fold change” value does the source give for RRIRIRPPRLPRPRPRPPNFPRP here?
Answer: The value was -0.108.

Question: How did the “shrunken log2 fold change” value turn out when RRIRIRPPRLPRPRPRPPPHPRP was run?
Answer: Its value is 0.392.

Question: For RRIRIRPPRLPRPRPRPPQSPRP, which “shrunken log2 fold change” value is on record?
Answer: Its value is 0.0652.

Question: How did the “shrunken log2 fold change” value turn out when RRIRIRPPRLPRPRPRPPQVPRP was run?
Answer: The value was 0.328.

Question: For RRIRIRPPRLPRPRPRPPRSPRP, which “shrunken log2 fold change” value is on record?
Answer: Its value is 0.272.
